Source: patent publication US20040018191A1
Values belong to the binder of their own block, whether it stands above or below them.

How the values were obtained:
[1] = target: soluble IGFR1 (sIGFR1), NSO-expressed recombinant protein encompassing the alpha-subunit and the extracellular domain of the beta-subunit of IGFR1 (human) (UniProt P08069); assay: SPR (Biacore 3000), IGFR1 on CM-5 chip, 25° C.; 25° C.
[2] = target: soluble IGFR1 (sIGFR1), NSO-expressed recombinant protein encompassing the alpha-subunit and the extracellular domain of the beta-subunit of IGFR1 (human) (UniProt P08069); assay: SPR (Biacore 3000), IGFR1 on CM-5 chip, 37° C.
[3] = target: soluble IGFR1 (sIGFR1), NSO-expressed recombinant protein encompassing the alpha-subunit and the extracellular domain of the beta-subunit of IGFR1 (human) (UniProt P08069); assay: SPR (Biacore 3000), IGFR1 on CM-5 chip, 25° C.
[4] = target: soluble IGFR1 (sIGFR1), NSO-expressed recombinant protein encompassing the alpha-subunit and the extracellular domain of the beta-subunit of IGFR1 (human) (UniProt P08069); assay: isotype ELISA on coated soluble IGFR1, detected with HRP-anti-human IgG3
[5] = target: soluble IGFR1 (sIGFR1), NSO-expressed recombinant protein encompassing the alpha-subunit and the extracellular domain of the beta-subunit of IGFR1 (human) (UniProt P08069); assay: SPR (Biacore 3000), IGFR1 on CM-5 chip, 25° C.; calculated from koff
[6] = target: soluble IGFR1 (sIGFR1), NSO-expressed recombinant protein encompassing the alpha-subunit and the extracellular domain of the beta-subunit of IGFR1 (human) (UniProt P08069); assay: isotype ELISA on coated soluble IGFR1, detected with HRP-anti-hu kappa
[7] = target: soluble IGFR1 (sIGFR1), NSO-expressed recombinant protein encompassing the alpha-subunit and the extracellular domain of the beta-subunit of IGFR1 (human) (UniProt P08069); assay: isotype ELISA on coated soluble IGFR1, detected with HRP-anti-hu-gamma
[8] = target: soluble IGFR1 (sIGFR1), NSO-expressed recombinant protein encompassing the alpha-subunit and the extracellular domain of the beta-subunit of IGFR1 (human) (UniProt P08069); assay: SPR (Biacore 3000), IGFR1 on CM-5 chip, 37° C.; calculated from koff

- kon [1]: 500000 M⁻¹ s⁻¹
- koff [2]: 4.01e-05 s⁻¹
- kon [2]: 720000 M⁻¹ s⁻¹
- koff [3]: 2.24e-05 s⁻¹
- ELISA signal (OD415 nm-490 nm) [4]: 0.813 OD
- Half-life [5]: 8.6 h
- ELISA signal (OD415 nm-490 nm) [6]: 1 OD
- ELISA signal (OD415 nm-490 nm) [7]: 1.9 OD
- Half-life [8]: 4.8 h
B1: 15H12 fully human monoclonal anti-IGFR1 antibody (antibody, IgG3, V domains shown)
VH: EVQLVQSGGGLVHPGGSLRLSCAASGFTFSSFAMHWVRQAPGKGLEWISVIDTRGATYYADSVKGRFTISRDNAKNSLYLQMNSLRAEDMAVYYCARLGNFYYGMDVWGQGTTVTVSS
VL: EIVLTQVPDFQSVTPKEKVTITCRASQSIGSSLHWYQQKPDQSPKLLIKYASQSLSGVPSRFSGSGSGTDFTLTINSLEAEDAAAYYCHQSSRLPHTFGGGTKVEIKR

- koff [2]: 4.93e-05 s⁻¹
- kon [2]: 680000 M⁻¹ s⁻¹
- koff [3]: 2.65e-05 s⁻¹
- kon [3]: 400000 M⁻¹ s⁻¹
- Half-life [5]: 7.27 h
- Half-life [8]: 3.91 h
B2: 19D12 fully human monoclonal anti-IGFR1 antibody (antibody, V domains shown)
VH: B1 VH
VL: B1 VL
